# Results as given in article PMC4938712 (Structure (London, England : 1993), 2016).
# B1: anti-Rev single-chain antibody variable fragment (scFv) (scFv, V domains shown)
# VH: QEQLVESGGRLVTPGTALTLTCKVSGFSLSGFWLNWVRQAPGKGLEWVGAIYRGSGSEWYASWAKGRFTISDTSTTVTLKLTSPTTEDTATYFCAADTTDNGYFTIWGPGTLVTVSS
# VL: ELVMTQTPSSVSEPVGGTVTIKCQASQSISSWLSWYQQKPGQPPKLLIYDASNLASGVPSRFMGSGSGTEYTLTISGVQREDAATYYCLGGYPAASYRTAFGGGTELEII
# B2: HIV-1 Rev, wild type, P04618 1-116 (natural protein)
# chain: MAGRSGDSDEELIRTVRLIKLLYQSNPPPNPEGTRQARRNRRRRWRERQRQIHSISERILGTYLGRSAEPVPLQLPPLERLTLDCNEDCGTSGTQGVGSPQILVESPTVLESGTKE
# Key:
# HIV-1 Rev L64A (HIV-1) = HIV-1 Rev L64A (HIV-1) (UniProt P04618)
# HIV-1 Rev P31A (HIV-1) = HIV-1 Rev P31A (HIV-1) (UniProt P04618); assay: AUC
# HIV-1 Rev, wild type = HIV-1 Rev, wild type (HIV-1, UniProt P04618); assay: crystal structure
# [1] = target: T1, HIV-1 Rev, wild type (HIV-1), P04618; assay: AUC; conditions: remark: other sources report otherwise
# T1 chain: B2 chain
molecule,measurement,setting,value
HIV-1 Rev L64A (from UniProt P04618 1-116) (natural protein),stoichiometry N,HIV-1 Rev L64A (HIV-1),2
HIV-1 Rev P31A (from UniProt P04618 1-116) (natural protein),stoichiometry N,HIV-1 Rev P31A (HIV-1),4
B1,binding result,"HIV-1 Rev, wild type",binds
B2,stoichiometry N,[1],4
